The text below walks through data of paper PMC8558179, “The C-terminal peptide of CCL21 drastically augments CCL21 activity through the dendritic cell lymph node homing receptor CCR7 by interaction with the receptor N-terminus” (Cellular and Molecular Life Sciences: CMLS, 2021).

For test [1], the target named is T1, human CCR7 (Homo sapiens, UniProt P32248).
T1 construct: CCR7 contains a 24-residue long signal peptide cleaved of from the mature protein; expressed in transfected cells; host or cells: CHO cells (CHO-K1, CHO suspension WT, GAG-deficient and 5xKO GalNAc-T knockout lines), transient transfection
T1 sequence (P32248 25-378): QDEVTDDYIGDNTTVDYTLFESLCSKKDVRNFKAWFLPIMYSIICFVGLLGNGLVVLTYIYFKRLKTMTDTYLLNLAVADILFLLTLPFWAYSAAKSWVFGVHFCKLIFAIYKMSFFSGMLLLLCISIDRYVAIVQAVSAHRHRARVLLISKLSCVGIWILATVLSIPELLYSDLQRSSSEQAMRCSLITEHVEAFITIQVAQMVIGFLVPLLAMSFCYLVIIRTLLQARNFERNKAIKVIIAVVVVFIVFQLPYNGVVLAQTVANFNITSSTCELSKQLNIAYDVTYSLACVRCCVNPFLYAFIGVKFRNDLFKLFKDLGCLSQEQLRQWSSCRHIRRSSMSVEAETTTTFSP
The experiment in a line: Gαi signaling, BRET-based cAMP (CAMYEL) assay at CCR7 in CHO cells. It counts as cell-based. Conditions: for effect of C21TP on CCL21^Tailless activity (Gαi signaling): CCL21^Tailless (CCL21 1–79) + 10 µM TP71-111, n = 4. Here is the method:
Human DCs were cultured in X-vivo 15 medium with 2% human AB serum and glutamine. CHO-K1 pgsB-618 ATCC® CRL2241™ [24] and CHO-K1 cells were grown in RPMI with 10% FBS and Penicillin/Streptomycin. HS^−/− (CHO EXTL 2/3 −/−), CS^−/− (CSGALNACT 1/2^−/− CHSY1^−/−), 5xKO (GalNAc-T1, 2, 4, 7 and 10 −/−) and WT CHO suspension cells were grown in suspension in 1:1 of EX-Cell CD CHO fusion media and Balanced CD CHO growth A medium supplemented with 2% glutamine and Penicillin/Streptomycin. Cells were kept in a humidified incubator at 37 °C, 5% CO2.
(§1) For cAMP assays, adherent CHO cells were transfected using lipofectamine while suspension cells were transfected using the FectoPro method. Cells were seeded in a 6-well plate, either 500,000 (adherent cells) or 200,000 (suspension cells) cells/well. The next day the cells were transiently transfected with vectors encoding the human CCR7 and CAMYEL sensor (cAMP sensor using YFP-Epac-RLuc) in a 1:5 ratio using lipofectamine (6 µl/well) or FectoPro (4 µl/well). Lipofectamine transfections were terminated by changing to 2 ml fresh cultivation medium after 5 h, while Fectopro transfection was terminated after 3 h by adding 2.5 ml fresh cultivation medium and 2 µl FectoPro Boost reagent per well. The cells were incubated under standard cultivation conditions overnight. For β-arrestin recruitment assays, cells were transfected with CCR7 and vectors expressing a Renilla luciferase arrestin3 fusion protein and membrane-SH3-citrine protein. The cells were then resuspended in PBS w/glucose and seeded in 96-well white iso plates (~ 25,000 cells/well). Coelenterazine (bioluminescence substrate) was added to a final conc. of 5 µM. After 10 min, cells were stimulated with varying ligand concentrations for a total of 40 min. Forskolin was added to each well 5 min after ligand addition to reach a final conc. of 5 µM. The plates were kept in the dark at all times. Emission signal from Rluc and eYFP was measured using the Envision machine at 530 and 480 nm and the BRET signal determined as the ratio between (eYFP/Rluc).

Test [2] has as its target T1, human CCR7. The experiment in a line: β-arrestin recruitment, BRET-based assay at CCR7. It counts as cell-based. Here is the method: as §1
The target of test [3] is T2, CCR7^−O (CCR7 T37/38/42A) (Homo sapiens, UniProt P32248, T37A/T38A/T42A).
T2 construct: CCR7 contains a 24-residue long signal peptide cleaved of from the mature protein; expressed in transfected cells; host or cells: CHO cells, transient transfection
T2 sequence (P32248 25-378 T37A/T38A/T42A): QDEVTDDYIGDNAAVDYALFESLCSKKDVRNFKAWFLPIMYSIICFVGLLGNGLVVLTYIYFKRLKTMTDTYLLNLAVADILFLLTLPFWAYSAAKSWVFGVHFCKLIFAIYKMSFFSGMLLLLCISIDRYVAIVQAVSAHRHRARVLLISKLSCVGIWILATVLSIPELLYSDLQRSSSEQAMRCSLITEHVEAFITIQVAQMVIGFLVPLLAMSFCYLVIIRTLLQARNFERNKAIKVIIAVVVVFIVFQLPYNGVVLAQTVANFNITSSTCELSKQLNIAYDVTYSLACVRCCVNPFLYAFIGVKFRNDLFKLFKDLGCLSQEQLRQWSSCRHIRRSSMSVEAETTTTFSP
As to the kind of experiment: Gαi signaling, BRET cAMP assay, CCR7 lacking N-terminal O-glycosylation sites. Format: cell-based. Here is the method: O-glycosylation deficient CCR7 was generated from WT through Quick change PCR using the following primers: […]
as §1

In a further test the test system is CCR7-N (CCR7 N36/292A). The experiment in a line: Gαi signaling, BRET cAMP assay, CCR7 lacking N-glycosylation sites. Format: cell-based, human. Conditions: CCL21 alone or CCL21 + 10 µM TP71-111, CHO cells, n = 3. Here is the method: For cAMP assays, adherent CHO cells were transfected using lipofectamine while suspension cells were transfected using the FectoPro method. Cells were seeded in a 6-well plate, either 500,000 (adherent cells) or 200,000 (suspension cells) cells/well. The next day the cells were transiently transfected with vectors encoding the human CCR7 and CAMYEL sensor (cAMP sensor using YFP-Epac-RLuc) in a 1:5 ratio using lipofectamine (6 µl/well) or FectoPro (4 µl/well). Lipofectamine transfections were terminated by changing to 2 ml fresh cultivation medium after 5 h, while Fectopro transfection was terminated after 3 h by adding 2.5 ml fresh cultivation medium and 2 µl FectoPro Boost reagent per well. The cells were incubated under standard cultivation conditions overnight. […] Emission signal from Rluc and eYFP was measured using the Envision machine at 530 and 480 nm and the BRET signal determined as the ratio between (eYFP/Rluc).
Supplementary file 18_2021_3930_MOESM4_ESM.png: Supplementary file4 C21TP boosting ability is not dependent on N-glycosylation sites. […] Signaling was measured in CHO cells quantified using the BRET based cAMP assay. […] Statistical significance was calculated using two-way ANOVA with Tukey’s correction for multiple test. *P<0.05, **P <0.01, ***P<0.001 (PNG 328 KB)
For orientation: In BRET a luciferase serves as donor, and the signal depends on an acceptor being close.

Entries after “also recorded” stand apart in the source; their conditions may differ.

In the case of “TP71-111: free CCL21 C-terminal peptide, residues 71–111 (41 amino acids, positively charged) (PSPQKPAQGCRKDRGASKTGKKGKGSKGCKRTERSQTPKGP; UniProt O00585 94-134, looked up, fragment)”, the “fold reduction of C21TP boosting effect on CCL21 signaling in 5xKO vs WT” value with human CCR7 [1] (CCL21 + 10 µM TP71-111, CHO 5xKO vs WT) was 25 fold. Further, the “effect of C21TP on CCL21^Tailless activity (Gαi signaling)” value is reported as “not improved” with human CCR7 [1] and “did not affect CCL21^Tailless potency” with human CCR7 [1] (listed as C21TP). Also, the “boosting of CCL21-induced CCR7 signaling in GAG KO cells” value with human CCR7 [1] (CHO GAG KO (pgsB 618) vs WT, 10 µM TP71-111, n = 3) is given as “tendency that boosting by C21TP (TP71-111) was increased”. Besides, in the test with human CCR7 [1] (CHO HS−/−, CS−/− and GAG KO (pgsB 618) cells, 10 µM TP71-111, n = 3), the “boosting of CCL21-induced CCR7 signaling in GAG-deficient cells” value is recorded as “In none of the GAG-deficient cells did we measure any decrease”. In addition, the “boosting of CCL19-induced CCR7 signaling in GAG-deficient cells” value in the test with human CCR7 [1] (CHO HS−/−, CS−/−, GAG KO cells, 10 µM TP71-111, n = 3, listed as C21TP) is “similarly unaffected by the lack of GAGs; also recorded: independent of cell GAG status”. Moreover, the “fold boost of CCL21 signaling activity via CCR7” value with human CCR7 [1] (in the presence of C21TP) is listed as ~ 100 fold. Also, in the test with human CCR7 [2] (CCL21^Tailless (CCL21 1–79) + 10 µM TP71-111, n = 4), the “effect of C21TP on CCL21^Tailless β-arrestin recruitment” value was “small but significant decrease”. In addition, the “boosting of CCL19 signaling by C21TP at CCR7^−O” value in test [3] (CCL19 + 10 µM TP71-111, CCR7^−O vs WT CCR7) is “diminished”. Besides, the “effect of removing extracellular N-glycosylation sites on signaling or boosting (CCR7-N)” value with CCR7-N (CCR7 N36/292A) is “no effect”.

B1: CCL21: full-length chemokine (residues 1–111), CCR7 ligand, from R&D Systems (protein, UniProt O00585 24-134, looked up)
C-C motif chemokine 21: SDGGAQDCCLKYSQRKIPAKVVRSYRKQEPSLGCSIPAILFLPRKRSQAELCADPKELWVQQLMQHLDKTPSPQKPAQGCRKDRGASKTGKKGKGSKGCKRTERSQTPKGP
Take B1: the “pEC50, Gαi signaling, chemokine alone” value with human CCR7 [1] (no peptide, CHO cells, forskolin 5 µM, n = 4) is given as 6.46. Also, in the test with human CCR7 [2] (no peptide, n = 4), the “pEC50, β-arrestin recruitment, chemokine alone” value was “undetectable”. In test [3] (no peptide, CCR7^−O vs WT CCR7), the “chemokine activity on its own at CCR7^−O” value was “almost unaffected; also recorded: without affecting basal CCR7 activation via CCL19 and CCL21”. Moreover, in the test on CCR7-N (CCR7 N36/292A), the “effect of removing extracellular N-glycosylation sites on signaling or boosting (CCR7-N)” value is “no effect”.
